Three molecules from patent US20230287125A1 (LEPU BIOPHARMA, published 2023) can be followed below.

As a reminder, the EC50 is the midpoint of the concentration-response curve. Lower therefore signals a more potent agent. As a reminder, the IC50 is the midpoint of a concentration-inhibition curve. Usually Kd stands for the equilibrium constant for the complex coming apart. Read a high Kd as weaker binding. What is called koff is a measure of how fast the partners let go of each other. Low readings indicate slow dissociation, high ones fast dissociation. The term kon denotes the rate constant with which the complex forms. Higher therefore signals fast association.

Experiment [1] deals with human TGF-β protein (human) (UniProt P01137). As to the kind of experiment: ELISA, coated human TGF-β. In general terms: An ELISA detects its analyte on a solid surface through an enzyme-linked reagent.
In another experiment the target is rat PD-L1 protein (rat, UniProt D4AE25 19-239). Briefly: ELISA, coated rat PD-L1. The method, then: (§1) ELISA testing was carried out to evaluate the binding of chimeric antibodies to human, mouse, rat, and cynomolgus PD-L1, respectively.
(§2) Briefly, microtiter plates were coated with human, mouse, rat and cynomolgus PD-L1 proteins at 0.5 μg/ml in PBS, 100 μl/well at 4° C. overnight, then blocked with 150 μl/well of 1% BSA. Three-fold dilutions of chimeric antibodies starting from 10 μg/ml were added to each well and incubated for 1 hour at 37° C. The plates were washed with PBS/Tween and then incubate with mouse-anti-human IgG Fab antibody conjugated with Horse Radish Peroxidase (HRP) for 30 mins at 37° C. After washing, the plates were developed with TMB substrate and analyzed by spectrophotometer at OD 450 nm.

The target of experiment [2] is mouse TGF-β protein (mouse). Briefly: ELISA, coated mouse TGF-β.
Another experiment addresses mouse PD-L1 protein (mouse, UniProt Q9EP73 19-239). As to the kind of experiment: ELISA, coated mouse PD-L1. The protocol:
as §1, §2

Experiment [3] deals with PD-L1 on PD-L1 target cells (Homo sapiens (Human)) (UniProt Q9NZQ7). As to the kind of experiment: cell-based or functional assay.
Experiment [4] addresses human TGF-β protein (human) (UniProt P01137). As to the kind of experiment: cell-based or functional assay.
In another experiment the target is rat TGF-β protein (rat). As to the kind of experiment: ELISA, coated rat TGF-β.
The target in a further experiment is cynomolgus PD-L1 protein (cynomolgus, UniProt G7PSE7 19-238). Briefly: ELISA, coated cynomolgus PD-L1. The protocol:
as §1, §2

For experiment [5], the target named is cynomolgus TGF-β protein (cynomolgus). Briefly: ELISA, coated cynomolgus TGF-β.
Experiment [6] addresses T1, human PD-L1-his tag protein (human, UniProt Q9NZQ7 19-238).
T1 construct: also called human PD-L1-His protein; recombinant PD-L1 protein; not shown: his tag
As to the kind of experiment: ELISA, coated human PD-L1-His.

For experiment [7], the target named is T2, human PD-L1 over-expressed on CHOK1 cells (human, UniProt Q9NZQ7 19-290).
T2 construct: whole, on cells; also called PDL1-CHOK1 cells
Briefly: flow cytometry (MFI) on PDL1-CHOK1 cells; upper right panel. The method, then: To evaluate the antigen binding property, the humanized antibodies were analyzed for their binding to PD-L1 overexpressed on mammalian cells by FACS. Briefly, PDL1-CHOK1 cells were firstly incubated with 3-fold serious diluted humanized antibodies starting at 15 μg/ml at 4° C. for 40 mins. After washed by PBS, the Alexa Fluor® 647 AffiniPure Goat Anti-Human IgG (H+L) antibody was added to each well and incubated at 4° C. for 30 mins. The MFI of Alexa Fluor® 647 was evaluated by FACSCanto.

Experiment [8] has as its target T3, human PD-L1-Fc protein (human, UniProt Q9NZQ7 19-238).
T3 construct: coating antigen of the ELISAs; also called rhPD-L1-Fc; not shown: Fc
Briefly: receptor blocking ELISA: coated human PD-L1-Fc, blocked ligand biotin-labeled human PD-1-Fc (Bio-PD1), OD 450nm; middle right panel. The method, then:
(§3) Briefly, microtiter plates were coated with human PD-L1-Fc protein at 0.5 μg/ml in PBS, 100 μl/well at 4° C. overnight, then blocked with 150 μl/well of 1% BSA at 37° C. for 2 hours. […] The plates were washed with PBS/Tween and then incubated with Streptavidin-HRP for 10 mins at 37° C. After washing, the plates were developed with TMB substrate and analyzed by spectrophotometer at OD 450 nm.

The target of experiment [9] is T1, human PD-L1-his tag protein. Briefly: SPR (Biacore), affinity ranking, PDL1-His.
For experiment [10] the target is unchanged. As to the kind of experiment: SPR (Biacore T200), mAb captured on Protein A chip, PD-L1-his injected. The method, then: The binding of the humanized antibodies to recombinant PD-L1 protein (human PD-L1-his tag) was tested by Biacore using a capture method. […] A serial dilution of human PD-L1-his tag protein was injected over captured antibody for 2 mins at a flow rate of 30 μl/min. The antigen was allowed to dissociate for 1500 s. All the experiment were carried out on a Biacore T200.
Background: In SPR one partner is held on a chip, and binding of the other changes the refractive index at the surface.

Experiment [11] deals with T3, human PD-L1-Fc protein. As to the kind of experiment: ELISA, antibody titrated on coated human PD-L1-Fc, OD 450nm; upper right panel. The protocol: as §2, with “To evaluate antigen binding activity, the humanized antibodies were subjected to ELISA test. Briefly,” for “Briefly,”, “with human PD-L1-Fc protein” for “with human, mouse, rat and cynomolgus PD-L1 proteins”, “with 200” for “with 150”, “of humanized” for “of chimeric”, “then incubated” for “then incubate”, “for 1 hour” for “for 30 mins”

Experiment [12] concerns the target T3, human PD-L1-Fc protein. Briefly: receptor blocking ELISA: coated human PD-L1-Fc, blocked ligand biotin-labeled human CD80-Fc (Bio-CD80), OD 450nm; middle right panel. The protocol: as §3
Experiment [13] concerns the target T3, human PD-L1-Fc protein. As to the kind of experiment: receptor blocking ELISA: coated human PD-L1-Fc, blocked ligand biotin-labeled human CD80-Fc (Bio-CD80), OD 450nm [cont'd]. The method, then: as §3
In experiment [14] the target is T3, human PD-L1-Fc protein. Briefly: ELISA, antibody titrated on coated human PD-L1-Fc, OD 450nm; lower right panel. The protocol:
as §2, with “To evaluate antigen binding activity, the humanized antibodies were subjected to ELISA test. Briefly,” for “Briefly,”, “with human PD-L1-Fc protein” for “with human, mouse, rat and cynomolgus PD-L1 proteins”, “with 200” for “with 150”, “of humanized” for “of chimeric”, “then incubated” for “then incubate”, “for 1 hour” for “for 30 mins”

For experiment [15], the target named is T3, human PD-L1-Fc protein. As to the kind of experiment: receptor blocking ELISA: coated human PD-L1-Fc, blocked ligand biotin-labeled human PD-1-Fc (Bio-PD1), OD 450nm [cont'd]. The protocol:
as §3

Positions count from the first letter of the chain named.

T1 sequence (Q9NZQ7 19-238 limits assumed): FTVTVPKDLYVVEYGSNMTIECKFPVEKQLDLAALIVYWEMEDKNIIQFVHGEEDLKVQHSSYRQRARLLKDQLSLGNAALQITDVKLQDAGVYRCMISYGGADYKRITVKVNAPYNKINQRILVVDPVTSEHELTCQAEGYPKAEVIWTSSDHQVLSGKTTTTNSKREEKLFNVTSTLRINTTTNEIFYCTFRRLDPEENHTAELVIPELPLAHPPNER
T3 sequence (Q9NZQ7 19-238 limits assumed): as above
T2 sequence (Q9NZQ7 19-290): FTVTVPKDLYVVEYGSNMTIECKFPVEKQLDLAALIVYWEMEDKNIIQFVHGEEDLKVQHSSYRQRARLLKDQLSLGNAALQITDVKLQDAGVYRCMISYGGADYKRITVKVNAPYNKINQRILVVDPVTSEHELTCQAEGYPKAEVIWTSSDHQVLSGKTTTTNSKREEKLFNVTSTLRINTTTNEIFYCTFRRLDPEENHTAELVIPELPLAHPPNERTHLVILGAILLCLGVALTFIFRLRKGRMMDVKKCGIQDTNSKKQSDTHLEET
Chain of human TGF-β protein (human) (P01137 279-390 limits assumed): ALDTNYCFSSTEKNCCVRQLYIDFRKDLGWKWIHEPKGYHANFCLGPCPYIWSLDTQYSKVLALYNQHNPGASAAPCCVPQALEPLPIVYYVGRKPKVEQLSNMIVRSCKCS
Chain of PD-L1 on PD-L1 target cells (Homo sapiens (Human)) (Q9NZQ7 19-290 limits assumed): as the sequence (Q9NZQ7 19-290) above
Chain of cynomolgus PD-L1 protein (G7PSE7 entry or part of it): as the sequence (Q9NZQ7 19-238 limits assumed) above, with A33T, A34S, S62N, R68Q, Q82R, F173L, T185A, T192I, H215L counted along it
Chain of cynomolgus TGF-β protein (cynomolgus) (P09533 279-390): as the sequence (P01137 279-390 limits assumed) above
Chain of rat PD-L1 protein (D4AE25 entry or part of it limits assumed): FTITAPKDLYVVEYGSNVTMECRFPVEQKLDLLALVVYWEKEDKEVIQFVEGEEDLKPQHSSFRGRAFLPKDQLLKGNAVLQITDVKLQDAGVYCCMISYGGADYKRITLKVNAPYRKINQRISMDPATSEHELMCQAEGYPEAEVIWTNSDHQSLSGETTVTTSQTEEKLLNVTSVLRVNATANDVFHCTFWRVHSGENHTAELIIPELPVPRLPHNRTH
Chain of rat TGF-β protein (rat) (P17246 279-390): as the sequence (P01137 279-390 limits assumed) above, with A75S counted along it
Chain of mouse TGF-β protein (mouse) (P04202 279-390): as the sequence (P01137 279-390 limits assumed) above, with A75S counted along it
Chain of mouse PD-L1 protein (Q9EP73 19-239 limits assumed): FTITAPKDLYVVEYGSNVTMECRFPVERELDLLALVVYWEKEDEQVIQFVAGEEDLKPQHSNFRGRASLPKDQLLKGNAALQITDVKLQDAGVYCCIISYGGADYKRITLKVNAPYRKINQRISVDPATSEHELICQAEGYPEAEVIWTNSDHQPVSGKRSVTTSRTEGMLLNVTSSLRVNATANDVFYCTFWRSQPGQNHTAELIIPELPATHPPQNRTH

M7824 (bintrafusp alfa): the EC50 in [1] was 0.0434 µg/mL; with rat PD-L1 protein it was 0.0143 µg/mL; in experiment [2], 0.0462 µg/mL; with mouse PD-L1 protein, 0.0106 µg/mL; with rat TGF-β protein (rat) it was 0.124 µg/mL; in the experiment with cynomolgus PD-L1 protein, 0.0256 µg/mL. The EC50 is 0.0397 µg/mL in [5] and 0.0237 µg/mL in [6]. In [3], this molecule displayed an EC50, NFAT-RE-mediated luminescence, PD1 effector cells co-cultured with PD-L1 target cells of 0.85 nM. In experiment [4], the IC50, TGF-β SBE luciferase reporter assay in 293 cells was 0.0669 nM.

B1: Hu67F3G7-7 (antibody, V domains shown)
VH: EVQLVQSGAEVKKPGASVKVSCKASGYTFTDFWVSWVRQAPGQGLEWMGEIYPNSGVSRYNEKFKGRVTMTVDKSISTAYMELSRLRSDDTAVYYCTKYFGYTYWFGYWGQGTLVTVSS
VL: DTVLTQSPSSLSASVGDRVTITCRASKSVSTYMHWYQQKPGKAPKLLIYSASHLESGVPSRFSGSGSGTDFTLTISSLQPEDFATYYCQQSNELPVTFGGGTKVEIK
notes: humanized
Turning to B1, the EC50 in [7] stood at 0.11 nM; in the experiment with human PD-L1-Fc protein [11] it was 0.0124 µg/mL. For the same molecule, the IC50 with human PD-L1-Fc protein [8] is 0.14 µg/mL; with human PD-L1-Fc protein [12], 0.382 µg/mL. For the same molecule, the Kd in [9] is 0.0353 nM; in experiment [10] it was 0.0328 nM. Further, the koff in experiment [9] is 9.49e-05 s⁻¹; in [10], 7.25e-05 s⁻¹. The kon in [9] amounted to 2.69e+06 M⁻¹ s⁻¹; in experiment [10], 2.21e+06 M⁻¹ s⁻¹.

B2: Hu67F3G7-22 (antibody, V domains shown)
VH: B1 VH
VL: B1 VL with T2I, V3Q, L4M, A43Q
notes: humanized
Regarding B2, the half-maximal effective concentration (EC50) in experiment [7] worked out at 0.118 nM; in the experiment with human PD-L1-Fc protein [14], 7.8 ng/mL. Besides, the IC50 with human PD-L1-Fc protein [13] turned out to be 0.126 µg/mL; in the experiment with human PD-L1-Fc protein [15], 0.108 µg/mL. The Kd in experiment [9] is 0.0435 nM; in [10], 0.0326 nM. For the same molecule, the off-rate (koff) came out at 7.26e-05 s⁻¹ in experiment [9] and 5.79e-05 s⁻¹ in experiment [10]. Besides, the on-rate constant (kon) in experiment [9] worked out at 1.67e+06 M⁻¹ s⁻¹; in experiment [10] it was 1.78e+06 M⁻¹ s⁻¹.
